Measurements as given in patent US20240076384A1.

Tests used:
[1] = molecular target: soluble mouse Fc-human NKG2D dimer (human) (UniProt P26718); experiment: SPR, 37 C, mFc-hNKG2D captured, TriNKET as analyte, experiment 2
[2] = molecular target: soluble mouse Fc-human NKG2D dimer (human) (UniProt P26718); experiment: SPR, 37 C, mFc-hNKG2D captured, TriNKET as analyte, experiment 1
[3] = molecular target: soluble mouse Fc-human NKG2D dimer (human) (UniProt P26718); experiment: SPR, 37 C, mFc-hNKG2D captured, TriNKET as analyte, kinetic fit, experiment 3
[4] = molecular target: soluble mouse Fc-human NKG2D dimer (human) (UniProt P26718); experiment: SPR, 37 C, mFc-hNKG2D captured, TriNKET as analyte, experiment 3
[5] = molecular target: soluble mouse Fc-human NKG2D dimer (human) (UniProt P26718); experiment: SPR, 37 C, mFc-hNKG2D captured, TriNKET as analyte, steady state affinity fit, experiment 2
[6] = molecular target: soluble mouse Fc-human NKG2D dimer (human) (UniProt P26718); experiment: SPR, 37 C, mFc-hNKG2D captured, TriNKET as analyte, steady state affinity fit, experiment 3
[7] = molecular target: soluble mouse Fc-human NKG2D dimer (human) (UniProt P26718); experiment: SPR, 37 C, kinetic fit, average of three experiments for TriNKET A (cell split over r19 and r20, columns shifted)
[8] = molecular target: soluble mouse Fc-human NKG2D dimer (human) (UniProt P26718); experiment: SPR, 37 C, mFc-hNKG2D captured, TriNKET as analyte, kinetic fit, experiment 1
[9] = molecular target: soluble mouse Fc-human NKG2D dimer (human) (UniProt P26718); experiment: SPR, 37 C, steady state affinity fit, average of three experiments for TriNKET A (cell split over r19 and r20, columns shifted)
[10] = molecular target: soluble mouse Fc-human NKG2D dimer (human) (UniProt P26718); experiment: SPR, 37 C, average of three experiments for TriNKET A (columns shifted)
[11] = molecular target: soluble mouse Fc-human NKG2D dimer (human) (UniProt P26718); experiment: SPR, 37 C, mFc-hNKG2D captured, TriNKET as analyte, steady state affinity fit, experiment 1
[12] = molecular target: soluble mouse Fc-human NKG2D dimer (human) (UniProt P26718); experiment: SPR, 37 C, mFc-hNKG2D captured, TriNKET as analyte, kinetic fit, experiment 2

Sequence of soluble mouse Fc-human NKG2D dimer (human) (P26718 78-216): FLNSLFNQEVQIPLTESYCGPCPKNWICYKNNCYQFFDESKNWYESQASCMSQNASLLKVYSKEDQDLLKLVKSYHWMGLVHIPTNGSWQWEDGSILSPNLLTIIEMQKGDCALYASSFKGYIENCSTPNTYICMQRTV

Stoichiometry [1]: 0.88
Stoichiometry [2]: 1.01
Kd [3]: 595 nM
koff [3]: 0.115 s⁻¹
kon [3]: 193000 M⁻¹ s⁻¹
Stoichiometry [4]: 1.12
Kd [5]: 420 nM
Kd [6]: 580 nM
koff [7]: 0.112 s⁻¹
kon [7]: 196000 M⁻¹ s⁻¹
Kd [8]: 605 nM
koff [8]: 0.116 s⁻¹
kon [8]: 191000 M⁻¹ s⁻¹
Kd [9]: 487 nM
Stoichiometry [10]: 1.01
Kd [11]: 462 nM
Kd [12]: 523 nM
koff [12]: 0.106 s⁻¹
kon [12]: 203000 M⁻¹ s⁻¹
B1: TriNKET A (a TriNKET containing A49) (bispecific antibody, part only; not given: Tumour antigen arm, constant regions, Fc, V domains shown, not shown: another chain or arm of the molecule; a dimerising Fc or GST)
VH: EVQLVESGGGLVKPGGSLRLSCAASGFTFSSYSMNWVRQAPGKGLEWVSSISSSSSYIYYADSVKGRFTISRDNAKNSLYLQMNSLRAEDTAVYYCARGAPMGAAAGWFDPWGQGTLVTVSS
VL: DIQMTQSPSSVSASVGDRVTITCRASQGISSWLAWYQQKPGKAPKLLIYAASSLQSGVPSRFSGSGSGTDFTLTISSLQPEDFATYYCQQGVSFPRTFGGGTKVEIK
